Data on four molecules can be found in PMC7298706 (mBio, 2020).

What all share (experiment): ELISA
Holding throughout (details): both partners purified

In assay [1] the target is T1, LukD (Staphylococcus aureus, strain , UniProt O54082).
T1 construct: source: purified recombinant

For assay [2], the target named is T2, LukE (Staphylococcus aureus, strain , UniProt O54081).
T2 construct: source: purified recombinant

In assay [3] the target is T3, HlgA (Staphylococcus aureus, strain not told, UniProt P0A074).
T3 construct: source: purified recombinant

In assay [4] the target is T4, γ-hemolysin subunit HlgC, recombinant holoprotein (Staphylococcus aureus, strain not told, UniProt Q07227).
T4 construct: source: purified recombinant

Assay [5] deals with T5, HlgB (Staphylococcus aureus, strain not told, UniProt P0A077).
T5 construct: source: purified recombinant

The target in assay [6] is T6, LukS, S subunit of the Panton-Valentine leukocidin (LukSF), recombinant holoprotein (Staphylococcus aureus, strain not …, UniProt O80066).
T6 construct: source: purified recombinant

Changes are numbered by the printed parent chain.

B1: anti-HlgC1 MAb (antibody, V domains shown)
VH: QVQLLQSGAELVKPGASVQLSCKASGFTFTKHDINWVRQRPEQGLEWIGWIFPGDGNTKYNEKFKGKATLTTDKSSSTAYMQLNGLTSEDSAVYFCAKEIFYWGQGTSVTVSS
VL: DIVMTQSPSSLTVTAGEKVTMSCKSSQSLLNSENQRNYLTWYQQKPGQPPKLLISWASTRESGVPDRFTGSGSGTDFTLTISSVQAEDLAVYYCQNDFSYPLTFGAGTKLELR
notes: also called anti-HIgC1 MAb; source: murine B-cell hybridoma (BALB/c mice immunized with recombinant HlgC)
On to B1, for which the binding result is listed as “no binding (tested: MAb at 2 μg/ml)” in assay [1]; “no binding (tested: MAb at 2 μg/ml)” in assay [2]; “no binding (tested: MAb at 2 μg/ml)” in assay [3]; “binds” in assay [4]; “no binding (tested: MAb at 2 μg/ml)” in assay [5]; “binds” in assay [6].

B2: anti-HlgC4 MAb (antibody, V domains shown)
VH: B1 VH with H32Y, E42D, E62D, A68V, T69I, N84T, G85R, K98R
VL: B1 VL with F98Y
notes: also called anti-HIgC4 MAb; source: murine B-cell hybridoma (BALB/c mice immunized with recombinant HlgC)
Turning to B2, the binding result is on record as “no binding (tested: MAb at 2 μg/ml)” in assay [1]; “no binding (tested: MAb at 2 μg/ml)” in assay [2]; “no binding (tested: MAb at 2 μg/ml)” in assay [3]; “binds” in assay [4]; “no binding (tested: MAb at 2 μg/ml)” in assay [5]; “binds” in assay [6].

B3: anti-HlgC3 MAb (antibody, V domains shown)
VH: B1 VH with H32Y, E42D, E62D, A68V, T69I, N84S, G85R, K98R, S113A
VL: B1 VL with L30F, G47R, G63E, F98Y
notes: also called anti-HIgC3 MAb; source: murine B-cell hybridoma (BALB/c mice immunized with recombinant HlgC)
For the molecule B3, the binding result in assay [1] is “no binding (tested: MAb at 2 μg/ml)”; in assay [2], “no binding (tested: MAb at 2 μg/ml)”; in assay [3], “no binding (tested: MAb at 2 μg/ml)”; in assay [4] it was “binds”; in assay [5], “no binding (tested: MAb at 2 μg/ml)”; in assay [6], “binds”.

B4: anti-HlgC2 MAb (antibody, V domains shown)
VH: QVQLKESGPGLVAPSQSLSITCTVSGFSLTNFAVHWVRQPRGKGLEWLGSIWADGRTIYSALMSRLSISKDNSKSQVFLNMNSLQTDDTAMYYCATPFYFGYDGGYAMDHWGQGTSVTVSS
VL: DVLMTQTPLSLPVSLGDQASISCRSSQSIVHGSGNTYLEWYLQKPGQSPKLLIYKVSNRLSGVPDRISGSGSGTDFTLKINRVEAEDLGVYYCFQGSHVPYTFGGGTKLEMK
notes: also called anti-HIgC2 MAb; source: murine B-cell hybridoma (BALB/c mice immunized with recombinant HlgC)
On to B4, for which the binding result is recorded as “no binding (tested: MAb at 2 μg/ml)” in assay [1]; “no binding (tested: MAb at 2 μg/ml)” in assay [2]; “no binding (tested: MAb at 2 μg/ml)” in assay [3]; “binds” in assay [4]; “no binding (tested: MAb at 2 μg/ml)” in assay [5]; “binds” in assay [6].
